Patent US20170189504A1

These binders were tested against HLA-A*24 (human) (assay: UV-ligand exchange, anti-b2m ELISA).

peptide exchange yield	Binder
> 75%	VYQGHTALL [SEQ ID NO: 277 peptide …]
> 75%	TYELRYFQI [SEQ ID NO: 204 peptide …]
50 to 75%	LYITEPKTI [SEQ ID NO: 287 peptide …]
50 to 75%	YFIDSTNLKTHF [SEQ ID NO: 269 peptide …]
50 to 75%	HYPPVQVLF [SEQ ID NO: 285 peptide …]
50 to 75%	TFSVSSHLF [SEQ ID NO: 222 peptide …]
50 to 75%	YYGPSLFLL [SEQ ID NO: 200 peptide …]
50 to 75%	NYYEVHKELF [SEQ ID NO: 270 peptide …]
50 to 75%	IYATEAHVF [SEQ ID NO: 201 peptide …]
> 75%	VYWDSAGAAHF [SEQ ID NO: 202 peptide …]
50 to 75%	RYAEEVGIF [SEQ ID NO: 199 peptide …]
20 to 49%	AYVVFVSTL [SEQ ID NO: 207 peptide …]
50 to 75%	QYLGQIQHI [SEQ ID NO: 268 peptide …]
50 to 75%	TYKDEGNDYF [SEQ ID NO: 209 peptide …]
20 to 49%	PYRLIFEKF [SEQ ID NO: 281 peptide …]
50 to 75%	YYKSTSSAF [SEQ ID NO: 218 peptide …]
